Measured values reported in patent US20160362487A1 (Regeneron, published 2016).

T1: cynomolgus monkey IL-33 expressed with a C-terminal hexahistidine tag (cynomolgus monkey)
T1 construct: also called MfIL-33-6His; Mf-IL-33-6His
T1 chain: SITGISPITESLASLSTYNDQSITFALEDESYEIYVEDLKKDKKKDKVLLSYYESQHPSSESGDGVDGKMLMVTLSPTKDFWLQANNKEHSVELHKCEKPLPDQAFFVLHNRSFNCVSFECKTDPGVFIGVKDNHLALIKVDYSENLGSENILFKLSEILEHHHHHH

T2: human IL-33 (R&D Systems, #3625-IL-010/CF) (human, UniProt O95760 112-270)
T2 construct: Commercial recombinant protein; also called hIL-33; interleukin-33
T2 sequence (looked up): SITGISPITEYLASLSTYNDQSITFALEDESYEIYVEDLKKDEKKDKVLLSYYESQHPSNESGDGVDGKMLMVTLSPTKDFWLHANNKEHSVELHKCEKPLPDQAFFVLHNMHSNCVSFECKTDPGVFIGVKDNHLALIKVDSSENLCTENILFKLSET

T3: biotinylated hIL-33 protein (R&D systems, Cat #3625-IL/CF) (human, UniProt O95760 112-270, biotinylated (sites not given))
T3 construct: Same commercial protein as m21, biotin-labelled; also called biotin-hIL-33
T3 sequence (looked up): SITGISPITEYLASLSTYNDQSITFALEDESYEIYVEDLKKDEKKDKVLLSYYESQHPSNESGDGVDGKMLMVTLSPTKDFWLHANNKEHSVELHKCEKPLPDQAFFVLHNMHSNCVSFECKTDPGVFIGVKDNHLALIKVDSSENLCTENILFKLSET

B1: H4H9662P (antibody, V domains shown)
VH: EVQLVESGGGLVQPGGSLRLSCAASGFTFSSYALTWVRQAPGKGLEWVSFISGSGGRPFYADSVKGRFTISRDNSKNMLYLQMNSLRAEDTAIYYCAKSLYTTSWYGGFDSWGQGTLVTVSS
VL: DIQMTQSPSSVSASVGDRVTITCRASQGVVSWLAWYQQKPGKAPKLLIYAASSLQSGVPSRFSGSGSGTDFTLTISSLQPEDFATYYCQQSNSFPFTLGPGTKVDIK
notes: Human IgG4 Fc (H4H)
B2: H4H9663P (antibody, human IgG4, V domains shown)
VH: QVQLVQSGAEVKKPGASVKVSCKASGYTFTGHYMYWMRQAPGQGLEWMGWINPNSGGTNYAQKFQDRVTMTRDTSISTAYMELSRLRSDDTAVYYCARGRYGSSWYGGFEYWGQGTLVTVSS
VL: DIQMTQSPSSVSASVGDRVTITCRASQGITSWLAWYQQKPGKAPNLLIYAAASLQSGVPSRFSGSGSGTDFTLTISSLQPEDFTTYYCQQAYSLPLTFGGGTKVEIK
notes: Human IgG4 Fc (H4H)
B3: H4H9664P (antibody, human IgG4, V domains shown)
VH: QVQLVESGGGVVQPGRSLRLSCAASGFTFSSYGLHWVRQSPGKGLEWVALISYDGSNKYYADSVKGRFTISRDNSKNTLYLQMNSLRPEDTAGYFCAKSLYTTSWYGGFDYWGQGTLVTVSS
VL: DIQMTQSPSSVSASVGDRVTITCRASQGIRSWLAWYQQKPGKAPNLLIYAASSLQSGVPSRFSGSGSGTDFTLTISSLQPEDFATYYCQQANSFPPTFGPGTKVDIK
notes: Human IgG4 Fc (H4H)
B4: H4H9665P (antibody, human IgG4, V domains shown)
VH: EVQLVESGGGLVQPGGSLRLSCAASGFTFSNYAMTWVRQAPGKGLEWVSTISGSGDNTYYADSVQGRFTISRGHSKNTLYLQMNSLRAEDTAVYYCAKPTYSRSWYGAFDFWGQGTMVTVSS
VL: DIQMTQSPSSVSASVGDRVTITCRASQGISSWLAWYQQKPGKAPQLLIYAASRLQSGVPSRFWGSGSGTDFTLTISSLQPEDFATYYCQQANNFPFTFGPGTKVDIK
notes: Human IgG4 Fc (H4H)
B5: H4H9666P (antibody, human IgG4, V domains shown)
VH: QVQLVQSGAEVKKPGASVKVSCKASGYTFTSYGISWVRQAPGQGLEWMGWIRAYNGYTNYAQKFQGRVTMTTDTSTNTAYMELRTLNSDDTAVYYCARDRYSGSFHGNFDYWGQGTLVTVSS
VL: DIQMTQSPSSVSASVGDRVTITCRASQGIFSWLAWYQQKPGKAPKVLIYAASNLESGVPSRFSGSGSGTDFTLTISSLQPEDFATYYCQQANSLPLTFGGGTKVEIK
notes: Human IgG4 Fc (H4H)
B6: H4H9667P (antibody, human IgG4, V domains shown)
VH: EVQLVESGGGLVQPGGSLRLSCAASGFTFSTYSMHWVRQAPGKGLEYVSTINNNGDTTYYADSVKGRFTISRDNSKNTLYLQLGSLRPEDMAVYYCARQTYTSSWYGGFDSWGQGTLVTVSS
VL: DIQMTQSPSSVSASVGDRVTITCRASQGITSWLAWYQQKPGKAPKLLIYAASNLQSGVPSRFSGSGSGTDFTLTITSLQPEDFATYYCQQANSLPFTFGPGTKVDIK
notes: Human IgG4 Fc (H4H)
B7: H4H9670P (antibody, V domains shown)
VH: EVQLVESGGGLVQPGGSLRLSCAASGFTLSSYAMSWVRQAPGKGLEWVSAISGSGGSTYYADSVKGRFTISRDNSKNSLYLQLNSLRAEDTAVYYCAKTLYTTSWYGGFQHWGQGTLVTVSS
VL: DIQMTQSPSSVSASIGDRVTITCRASQGISSWLAWYQQKPGKVPKLLIYAASSLQSGFPSRFSGSGSGTDFTLTISSLQPEDFATYYCQQTHSFPWTVGQGTKVEIK
notes: Human IgG4 Fc (H4H)
B8: H4H9671P (antibody, human IgG4, V domains shown)
VH: EVQLVESGGGLVQPGGSLRLSCAASGFTLRSYFMTWVRQVPGKGLEGVSAISGISGGTYYTDSVKGRFTISRDNSKNTLFLQMNSLRAEDTAVYFCARTVYSSSYYGGFQHWGQGTLVTVSS
VL: DIQMTQSPSSVSVSVGDRVTITCRASQGISSWLAWYQQKPGKAPKLLIYVASSLQSGVPSRFSGSGSGTDFTLTISSLQPEDFATYYCQQTNSFPLTFGGGTKVEIK
notes: Human IgG4 Fc (H4H)

Tests used:
[1] = biological target: T1, cynomolgus monkey IL-33 expressed with …; test: BLI; mAb-1 on captured MfIL-33-6His
Experimental: (§1) Binding competition between a panel of different anti-IL-33 monoclonal antibodies was determined using a real time, label-free bio-layer interferometry assay on an Octet® HTX biosensor (ForteBio, A Division of Pall Life Sciences). The experiment was performed at 25° C. using a buffer of 0.01M HEPES pH7.4, 0.15M NaCl, 3 mM EDTA, 0.05% v/v Surfactant Tween-20, and 0.1 mg/ml BSA (HBS-ET kinetics buffer) with the plate shaking at a speed of 1000 rpm. […] The antigen-captured biosensors were then saturated with a first anti-IL-33 monoclonal antibody (subsequently referred to as mAb-1) by immersion into wells containing 50 μg/mL solution of mAb-1 for 5 minutes. The biosensors were then dipped into wells containing a 50 μg/mL solution of a second anti-IL-33 monoclonal antibody (subsequently referred to as mAb-2) for 4 minutes. The biosensors were washed in HBS-ET kinetics buffer in between every step of the experiment. The real-time binding response was monitored during the experiment, and the maximum binding response for each binding step was recorded. The response of mAb-2 binding to MfIL-33-6His pre-complexed with mAb-1 was measured, and competitive/non-competitive behavior of different anti-IL-33 monoclonal antibodies with respect to each other was determined.

[2] = biological target: T2, human IL-33 (R&D Systems, …); test: SPR 25C, pH6.0 chase, mAb captured
Experimental: (§2) Equilibrium dissociation constants (KD values) for IL-33 binding to purified anti-IL-33 monoclonal antibodies were determined using a real-time surface plasmon resonance biosensor using a Biacore 4000 instrument. The Biacore sensor surface was first derivatized by amine coupling with either a polyclonal rabbit anti-mouse antibody (GE, # BR-1008-38) or with a monoclonal mouse anti-human Fc antibody (GE, # BR-1008-39) to capture anti-IL-33 monoclonal antibodies expressed with mouse or with human IgG4 constant regions, respectively. All Biacore binding studies were performed in 0.01M ADA pH 7.4, 0.15M NaCl, 3 mM EDTA, and 0.05% v/v Surfactant Tween-20 (ABS-ET running buffer). […] Association of either hIL-33 or MfIL-33-6His to the captured monoclonal antibody was monitored for 4 minutes and their dissociation in ABS-ET running buffer was monitored for 10 minutes. The effect of reduced pH on the binding of each anti-IL-33 antibody to either hIL-33 or MfIL-33-6His was studied using an in-line pH chase assay format in 0.01M ADA pH 6.0, 0.15M NaCl, 3 mM EDTA, and 0.05% v/v Surfactant Tween-20 (ABS-ET pH6 buffer). To achieve this, association of either hIL-33 or MfIL-33-6His to the captured monoclonal antibody was monitored for 4 minutes in ABS-ET running buffer. Following a 30 second dissociation of either hIL-33 or MfIL-33-6His in ABS-ET running buffer, ABS-ET pH6 buffer was injected for 3 minutes, and the analyte dissociation under the low-pH conditions was measured. All the binding kinetic experiments were performed at both 25° C. and 37° C. Kinetic association (kₐ) and dissociation (kd) constants were determined by fitting the real-time sensorgrams to a 1:1 binding model using Scrubber 2.0c curve fitting software. Binding dissociation equilibrium constants (KD) and dissociative half-lives (t½) were calculated from the kinetic rate constants as: […]

[3] = biological target: T1, cynomolgus monkey IL-33 expressed with …; test: SPR 25C, pH6.0 chase, mAb captured
Experimental: as §2

[4] = biological target: T1, cynomolgus monkey IL-33 expressed with …; test: BLI; captured MfIL-33-6His, mAb-1 step with Isotype control
Experimental: as §1

[5] = biological target: T3, biotinylated hIL-33 protein (R&D …); test: competition ELISA, 30 pM biotin-hIL-33 on coated hST2-hFc
Experimental: The ability of anti-IL-33 antibodies to block either human IL-33 (hIL-33) or cynomologus monkey IL-33 binding to the human ST2 receptor was measured using a competition sandwich ELISA. […] The antibody/IL-33 mixtures were incubated for 1 hour at room temperature before they were transferred to the hST2-hFc-coated microtiter plates. After incubating for 1 hour at room temperature, the wells were then washed, and plate-bound biotin-hIL-33 was detected with streptavidin conjugated with horse-radish peroxidase (HRP) (Thermo Scientific, Cat # N200), and plate-bound MfIL-33-6His was detected with a HRP conjugated anti-His monoclonal antibody (Qiagen, #34460). All samples were developed with a TMB solution (BD biosciences, #51-2607KC) to produce a colorimetric reaction and then quenched by acidification with 1M sulfuric acid before measuring absorbance at 450 nm on a Victor X5 plate reader. Data analysis was performed using a sigmoidal dose-response model within Prism™ software. […] Percent blockade was calculated as the ratio of the reduction in signal observed in the presence of antibody relative to the difference between the signal with IL-33 alone and background (signal from HRP-conjugated secondary antibody or streptavidin alone). The absorbance measured for the constant concentration of biotin-hIL-33 or MfIL-33-6His alone is defined as 0% blocking and the absorbance measured for no added IL-33 is defined as 100% blocking.

| Binder | mAb-1 Binding (nm) [1] | koff [2] | t½ [2] | t½ Ratio (pH 7.4/pH 6.0) [2] | koff [3] | t½ [3] | t½ Ratio (pH 7.4/pH 6.0) [3] | mAb-2 Binding to the Pre-complex of mAb-1 & MfIL-33-6xHis [4] | % Maximum blocking [5] | IC50 [5] |
| --- | --- | --- | --- | --- | --- | --- | --- | --- | --- | --- |
| B1 | 0.56 nm | 0.000826 s⁻¹ | 14 min | 3.3 | 0.000117 s⁻¹ | 99 min | 0.3 | 0.22 nm | 77% | 1 nM |
| B2 | 0.54 nm | 0.0011 s⁻¹ | 11 min | 2.7 | 0.000683 s⁻¹ | 17 min | 0.7 | 0.23 nm | 74% | 0.5 nM |
| B3 | 0.61 nm | 0.000823 s⁻¹ | 14 min | 3.2 | 0.00048 s⁻¹ | 24 min | 0.3 | 0.27 nm | 73% | 0.3 nM |
| B4 | 0.63 nm | 0.00212 s⁻¹ | 5 min | 4.5 | 0.000753 s⁻¹ | 15 min | 1.3 | 0.3 nm | 55% | 0.87 nM |
| B5 | 0.57 nm | 0.00134 s⁻¹ | 9 min | 4.8 | 0.00809 s⁻¹ | 1.4 min | 2.3 | 0.28 nm | 71% | 0.6 nM |
| B6 | 0.5 nm | 0.000566 s⁻¹ | 20 min | 2.2 | 0.000696 s⁻¹ | 17 min | 0.7 | 0.26 nm | 78% | 0.41 nM |
| B7 | 0.56 nm | 0.000825 s⁻¹ | 14 min | 2.9 | 0.000393 s⁻¹ | 29 min | 0.2 | 0.23 nm | 69% | 0.48 nM |
| B8 | 0.58 nm | 0.00162 s⁻¹ | 7 min | 4.6 | 0.00161 s⁻¹ | 7 min | 1.1 | 0.26 nm | 46% | 0.46 nM |
